Source: the MegaScale stability set (Tsuboyama et al. 2023)

B1: 6YSE (parent)
chain: HERALMVNRLQKLTRMLRVHPDPKWKQEQQELIKRLK
B2: r4_43_TrROS_Hall (parent)
chain: DLVTIKVPLENLEEIKKAAEKAGFKIVSISYDKENKEVTIVIEKKK

Variants of: B1
Assay: folding stability dG (cDNA display proteolysis); higher = more stable
Conditions: PBS, room temperature

Folding stability dG [kcal/mol] of substitutions, site by site:
I33: K 0.269; L 1.17; V 0.738; S -0.232; M 0.592; T 0.17; A 0.217; Q -0.155; R 0.898; G -0.702; N 0.375; F 0.663; W 0.93; E -0.101; H -0.268; Y 0.751
R35: V 1.14; E 0.729; D -0.514; W 1.42; K 1.51; F 1.18; Y 1.16; T 0.734; L 1.73; A 1.24; H 0.82; S 0.493; M 0.84; Q 1.19; N 0.739; I 1.58; G -0.14
K37: I 1.08; N 1.24; R 1.55; T 1.25; D 0.831; F 1.68; S 1.19; H 1.19; L 1.42; G 1.27; V 0.95; M 1.7; Y 1.74; Q 1.8; W 1.43; E 1.05
L36: M 0.478; Y -0.212; W -0.411; F 0.524; R -0.888; I 0.873
L32: Y -0.525; M -0.196; F -0.201; I 0.927; W -0.364
K34: D 0.366; N 1; R 1.51; H 1.11; M 1.34; F 1.2; V 1.03; C 1.59; L 1.15; W 0.902; S 1.07; G 0.802; E 1.14; Q 1.25; I 1.31; T 1.27; A 1.37; Y 1.02
Q30: T 1.13; W 1.39; Y 1.04; V 1.1
E31: S 0.996; L 1.08; Y 1.1; I 1.14; Q 0.963; A 1.2; R 1.15; C 1.69; K 0.805; W 1.4; H 0.812; D 1.38; N 0.839; F 1.01; T 0.995; V 0.669; G 0.441; M 1.45

Variants of: B2
Assay: as above
Conditions: PBS, room temperature

Folding stability dG [kcal/mol] of substitutions, site by site:
L12: D 2.46; Q 3.25; A 3.63; K 3.03; F 3.75; E 3.55; R 2.8; Y 3.64; G 3.16; V 3.56; I 3.73; H 3.41; W 3.67; N 2.46; S 3.38; P 1.92; M 3.77; T 3.23
N11: L 3.67; W 3.63; F 3.59; E 3.27; Q 3.76; C 3; V 3.87; H 3.83; A 3.83; Y 4.11; G 3.34; R 4.15; M 3.51; I 3.73; K 3.65; P 2.5; D 3.4; S 3.42; T 3.59
L9: S 3.47; I 3.61; Y 3.39; G 3.08; E 3.46; Q 3.49; N 3.58; D 3.42; M 3.53; W 3.92; V 3.6; K 3.66; T 3.46; A 3.66; F 3.69; P 3.53; R 3.59; H 3.57
K6: H 3.71; R 3.84; D 2.82; E 2.83; W 3.39; I 3.75; T 3.77; S 3.52; M 3.31; Y 3.48; N 3.37; P 2.42; Q 3.04; V 3.5; C 3.32; A 3.51; L 3.31; G 2.98; F 3.62
D1: G 3.47; C 3.7; R 3.42; F 3.9; S 3.84; K 3.81; N 3.79; H 3.83; V 4; A 3.81; W 4.07; T 3.83; I 3.87; Y 3.87; M 4.1; L 3.84; E 3.66; Q 3.82; P 3.56
E13: F 3.99; D 3.64; I 3.69; K 3.62; C 3.74; G 3.63; H 3.55; A 3.28
E10: A 3.8; H 3.41; C 3.35; F 3.75; W 3.79; Y 3.77; V 3.68; P 3.48; R 3.72; K 3.61; Q 3.52; S 3.85; I 3.86; T 3.75; G 3.58; M 4.03; L 3.59; D 3.29; N 4.02
V7: L 3.51; R 3.3; M 3.63; N 2.53; Y 3.24; D 1.97; Q 3.04; I 3.6; H 3.12; S 3.71; F 3.46; E 2.93; K 3.01; P 2.19; G 3.46; W 3.44; T 3.57; A 3.81; C 3.66
I5: W 4.23; K 3.27; S 2.9; M 3.79; L 4.01; N 2.61; Y 4.42; C 3.01; P 1.48; A 3.14; E 2.86; R 3.1; V 3.79; Q 3.15; F 4.32; H 3.23; D 2.34; T 3.42; G 1.98
V3: M 3.66; F 4.06; R 3.4; E 3.1; G 3.13; P 2.93; W 4.34; C 3.72; K 3.45; S 3.62; I 3.36; Y 4.03; Q 3.65; L 3.62; T 3.66; N 3.25; D 3.18; A 3.33; H 3.69
L2: S 3.39; T 3.93; W 3.78; Y 4.08; K 3.52; R 3.58; N 3.23; V 3.91; G 3.42; D 3.35; H 3.43; A 3.4; F 3.76; I 3.13; E 3.45; Q 3.85; M 3.66; P 3.23; C 3.41
T4: H 3.64; S 3.78; D 2.98; E 3.5; A 3.92; M 3.65; K 3.56; G 3.14; R 3.52; I 3.54; P 3.02; V 3.48; F 3.68; Q 3.38; Y 4.13; L 3.46; N 3.45; W 3.88; C 3.44
P8: Q 3.53; G 3.77; W 3.7; D 3.39; E 3.19; R 3.27; V 3.72; N 3.58; L 3.95; Y 3.62; F 3.75; A 3.6; I 3.5; H 4.12; M 3.81; C 3.58; K 3.71; S 3.49; T 3.68
